According to article PMC3885797 (2014):

Molecular target: T1, 6xHis-CTNNBL1Δ76 (human, UniProt Q8WYA6 77-563)
T1 chain: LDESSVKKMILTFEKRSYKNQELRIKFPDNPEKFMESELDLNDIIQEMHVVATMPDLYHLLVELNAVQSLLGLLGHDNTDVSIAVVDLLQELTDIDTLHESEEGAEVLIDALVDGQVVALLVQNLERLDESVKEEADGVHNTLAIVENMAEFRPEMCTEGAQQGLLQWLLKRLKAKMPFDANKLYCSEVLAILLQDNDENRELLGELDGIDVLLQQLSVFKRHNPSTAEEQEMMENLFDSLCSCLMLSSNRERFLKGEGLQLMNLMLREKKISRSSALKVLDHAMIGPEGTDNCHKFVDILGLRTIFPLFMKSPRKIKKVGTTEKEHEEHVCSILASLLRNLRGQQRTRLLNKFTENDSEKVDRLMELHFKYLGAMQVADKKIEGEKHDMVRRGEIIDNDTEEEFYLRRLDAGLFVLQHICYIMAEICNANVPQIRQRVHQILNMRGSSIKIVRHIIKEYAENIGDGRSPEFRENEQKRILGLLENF
Experiment: ITC; second site

B1: Prp31 NLS peptide (peptide)
chain: RKKRGGRRYRKMKE
modifications: Limits are the UniProt NLS motif (351-364); the exact peptide is shown only in Fig. 4B and may have different flanks
B1 was tested, and the Kd was ~12 µM.

B2: CDC5L NLS3 peptide (peptide)
chain: KKRKRKR
modifications: Limits are the UniProt region required for CTNNBL1 interaction (200-206), taken as the NLS3 core; the assayed peptide is shown only in Fig. 4B and may have longer flanks
In the case of B2, the Kd is reported as ~4 µM.
